Series [1] has as its system L540 human Hodgkin's disease tumors. Briefly: Anti-tumor effects (tumor growth), L540 tumors. Conditions: day 14; FIG. 19. It is filed as in vivo, mouse. How it is done: (§1) Accepted animal models were used to determine whether administration of tTF or immunoglobulin-tTF conjugates suppressed the growth of solid tumors in mice. The tumor test systems were: i) L540 human Hodgkin's disease tumors growing in SCID mice; ii) C1300 Muγ (interferon-secreting) neuroblastoma growing in nu/nu mice; iii) H460 human non-small cell lung carcinoma growing in nu/nu mice. To establish solid tumors, 1.5×10^7 tumor cells were injected subcutaneously into the right anterior flank of SCID or BALB/c nu/nu mice (Charles River Labs., Wilmingham, Mass.). When the tumors had grown to various diameters, mice were assigned to different experimental groups, each containing 4 to 9 mice.
(§2) Mice then received an intravenous injection of 0.5 mg/kg of tTF alone or linked to bispecific antibody. Other mice received equivalent quantities of bispecific antibody alone. The injections were performed over ˜45 seconds into one of the tail veins, followed by 200 μl of saline. The infusions were repeated six days later. Perpendicular tumor diameters were measured at regular intervals and tumor volumes were calculated.

For series [2] the following is noted: cited from earlier work.
For series [3], the system named is HT29 (human colorectal carcinoma) xenograft. The series is described as follows: Tumor necrosis in HT29 xenografts 24 hours after treatment (Example XII). It is filed as in vivo, mouse. Conditions: 24 hours after intravenous injection; tumors 0.5 to 1.0 cm^3; FIG. 23. The protocol:
For these studies, the inventors chose the HT29 (human colorectal carcinoma) xenograft tumor model. HT29 cells (10^7 cells/mouse) were subcutaneously injected into BALB/c nu/nu mice. Tumor dimensions were monitored and animals were treated when the tumor size was between 0.5 and 1.0 cm^3.
Animals were sacrificed 24 hours after treatment, perfused with saline and heparin and exsanguinated. Tumors and organs were collected, formalin fixed and histological sections were prepared. The average area of necrosis in sections of the tumors was quantified and calculated as a percentage of the total area of tumor on the section.

Series [4] relates to C1300 Muγ (interferon-secreting) neuroblastoma. The series is described as follows: Anti-tumor effects (tumor growth), C1300 Muγ tumors. The series is classed as in vivo, mouse. How it is done:
as §1, §2

In series [5] the test system is C1300 Muγ mouse neuroblastoma. Briefly: In vivo tumor thrombosis, C1300 Muγ tumors. An excerpt:
(§3) Tumor test systems were of four types: i) 3LL mouse lung carcinoma growing subcutaneously in C57BL/6 mice; ii) C1300 mouse neuroblastoma growing subcutaneously in BALB/c nu/nu mice; iii) HT29 human colorectal carcinoma growing subcutaneously in BALB/c nu/nu mice; and iv) C1300 Muγ mouse neuroblastoma growing subcutaneously in BALB/c nu/nu mice. The C1300 Muγ tumor is an interferon-γ secreting transfectant derived from the C1300 tumor (Watanabe et al., 1989).
Further, the C1300 (Muγ) tumor model of (Burrows, et al., 1992; incorporated herein by reference) was employed and modified as follows: (i) antibody B21-2 was used to target I-A^d; (ii) C1300(Muγ) tumor cells, a subline of C1300(Muγ) 12 tumor cells, that grew continuously in BALB/c nu/nu mice were used; and (iii) tetracycline was […] the mice's drinking water to prevent gut bacteria from inducing I-A^d on the gastrointestinal epithelium.
(§4) To establish tumors, 10^6 to 1.5×10^7 tumor cells were injected subcutaneously into the right anterior flank of the mice. When tumors had grown to various sizes, mice were randomly assigned to different study groups. Mice then received an intravenous injection of 0.5 mg/kg of tTF alone or linked to IgG, Fab′, or bispecific antibody. Other mice received equivalent quantities IgG, Fab′ or bispecific antibody alone. The injections were performed slowly into one of the tail veins over approximately 45 seconds, usually followed by 200 μl of saline.
(§5) Twenty-four hours after being injected with tTF or immunoglobulin-tTF conjugates, the mice were anesthetized with metophane and were exsanguinated by perfusion with heparinized saline. Tumors and normal tissues were excised and immediately fixed in 3% (v/v) formalin. Paraffin sections were cut and stained with hematoxylin and eosin. Blood vessels having open lumens containing erythrocytes and blood vessels containing thrombi were counted. Paraffin sections were cut and stained with hematoxylin and eosin or with Martius Scarlet Blue (MSB) trichrome for the detection of fibrin.

The test system of series [6] is H460 human non-small cell lung carcinoma. Briefly: Anti-tumor effects (tumor growth), H460 tumors. The series is classed as in vivo, mouse. To be noted: FIG. 13. How it is done: as §1, §2
Series [7] has as its system citrated mouse plasma. The series is described as follows: In vitro coagulation assay: tTF constructs localized on A20 lymphoma cells via bispecific antibody B21-2/10H10. It is filed as cell-based. Conditions: for time in which plasma coagulated: FIG. 20; for coagulation time: FIG. 4B; for coagulation times compared with tTF219 and Factor VIIa at the same concentrations: addition of Factor VIIa at 1 nM or greater, FIG. 22; for coagulation-inducing activity once localized on A20 cells via B21-2/10H10, in words (compared with tTF219): plasma coagulation. The protocol: This assay was used to verify that tTF, various derivatives and mutants thereof, and immunoglobulin-tTF conjugates acquire coagulation inducing activity once localized at a cell surface. A20 lymphoma cells (I-A^d positive) (2×10^6 cells/ml, 50 μl) were incubated for 1 h at room temperature with a bispecific antibody (50 μg/ml, 25 μl) consisting of a Fab′ arm of the B21-2 antibody directed against I-A^d linked to a Fab′ arm of the 10H10 antibody directed against a non-inhibitory epitope on tTF. The cells were washed at room temperature and varying concentrations of tTF, derivatives or mutants thereof, or immunoglobulin-tTF conjugates were added for 1 hour at room temperature. The bispecific antibody captures the tTF or tTF linked to immunoglobulin, bringing it into close approximation to the cell surface, where coagulation can proceed.
The cells were washed again at room temperature, resuspended in 75 μl of PBS and warmed to 37° C. […] The time for the first fibrin strands to form was recorded. Clotting time was plotted against tTF concentration and curves compared with standard curves prepared using standard tTF219 preparations.

Series [8] relates to C1300 mouse neuroblastoma. The series is described as follows: In vivo tumor thrombosis, C1300 tumors.
Text: as §3, §4
(§6) Twenty-four hours after being injected with tTF or immunoglobulin-tTF conjugates, the mice were anesthetized with metophane and were exsanguinated by perfusion with heparinized saline. Tumors and normal tissues were excised and immediately fixed in 3% (v/v) formalin. […] Blood vessels having open lumens containing erythrocytes and blood vessels containing thrombi were counted. […]

In series [9] the test system is 3LL mouse lung carcinoma. Briefly: In vivo tumor thrombosis, 3LL tumors. Conditions: C57BL/6 mice, large (>800 mm^3) tumors; FIG. 11.
Text: as §3, §4, §6

Series [10] in a line: Toxicity and histology of normal organs in treated tumor-bearing mice. It is filed as in vivo, mouse. Conditions: 30 minutes or 24 hours after administration.
Text: as §5

Series [11] has as its system factor X. Conditions: appropriate phospholipid membrane environment; Ruf, et al., 1991b; cited from earlier work.
In series [12] the test system is HT29 human colorectal carcinomas. Briefly: Anti-tumor effects (tumor growth), HT29 tumors. The series is classed as in vivo, mouse. Conditions: nu/nu mice, large (1200 mm^3) tumors, intravenous; FIG. 14. How it is done: Anti-tumor effects were also observed in mice bearing HT29 human colorectal carcinomas (FIG. 14). Nu/nu mice bearing large (1200 mm^3) tumors on their flanks were injected intravenously with tTF219 or PBS (control), and growth of the tumors was monitored each day for 10 days. The tumors in the tTF219 treated mice discontinued growth for about 7 days after treatment, whereas the tumors in mice treated with PBS continued to grow unchecked.

The nature of series [13]: Toxicity to mice of tTF mutants and Factor VIIa given separately. It is filed as in vivo.

Positions count from the first letter of the chain named. Numbers in names are those of the source.

In series [1], `COc1cc([C@@H]2c3cc4c(cc3[C@@H](O[C@@H]3O[C@@H]5CO[C@@H](C)O[C@H]5[C@H](O)[C@H]3O)[C@H]3COC(=O)[C@H]23)OCO4)cc(OC)c1O` [etoposide] registered an average tumor volume of 1400 mm^3.
For the molecule “Factor VIIa: recombinant human Factor VIIa”, the half-life in vivo result in series [2] was “approximately two”. For the same molecule, the “necrosis in tumor sections, in words” value in series [3] is “some necrosis”.

B1: tTF219: truncated Tissue Factor: residues 1-219 of TF plus an additional glycine at the N-terminus; SEQ ID NO:1 (protein)
chain: GSGTTNTVAAYNLTWKSTNFKTILEWEPKPVNQVYTVQISTKSGDWKSKCFYTTDTECDLTDEIVKDVKQTYLARVFSYPAGNVESTGSAGEPLYENSPEFTPYLETNLGQPTIQSFEQVGTKVNVTVEDERTLVRRNNTFLSLRDVFGKDLIYTLYYWKSSSSGKKTAKTNTNEFLIDVDKGENYCFSVQAVIPSRTVNRKSTDSPVECMGQEKGEFRE
As to B1, the “tumor size relative to controls receiving diluent alone” value in series [4] (fourteen days after the first injection, small (300 mm^3) tumors, treatment repeated 6 days later, FIG. 18) worked out at 75%. Moreover, the tumor response entry in series [4] (large (0.8 to 1.0 cm diameter) tumors, two intravenous injections 6 days apart, FIG. 12A) is “grew significantly more slowly”. Also, in [4] (one week after the second treatment, small (300 mm^3) tumors at start), the “tumor size relative to tumors in mice receiving diluent alone” value was 60%. The “effect of the first treatment on tumor growth” value in series [4] (small (300 mm^3) tumors, 16-20 μg intravenously, FIG. 12B) is reported as “slight inhibitory effect on tumor growth”. The “effect of the second treatment on tumor growth” value in series [4] (treatment repeated one week later, FIG. 12B) is on record as “substantially greater, statistically significant (P<0.01), effect on tumor growth”. Further, the “thrombosis of tumor vessels” value in series [5] (24 hours after injection, large tumors, FIG. 9) is given as “practically all vessels in all regions of the tumor were thrombosed”; in [8] (large tumors (>1000 mm^3), 24 hours after injection, FIG. 10) it was “virtually all vessels were thrombosed”. Besides, the “effect on tumor vessels” value in series [5] (small (<500 mm^3) tumors) and in series [8] (small (<500 mm^3) tumors) was “largely unaffected” throughout. In addition, the “gross appearance of tumors” value in series [5] (starting within 30 minutes, progressively more marked up to 24 hours) is “blackened, bruised appearance”. Moreover, the “tumor volume to which tumors regressed before regrowing” value in series [6] (second treatment given when tumors were 900 mm^3) is reported as 550 mm^3. For the same molecule, the “effect of the first treatment” value in series [6] (tumors small (250 mm^3)) is “little effect on growth rate”. The “necrosis in tumor sections, in words” value in series [3] is recorded as “some necrosis”. Moreover, the “time in which plasma coagulated” value in [7] (10^−10 M tTF219, absence of Factor VIIa) is 60 s; in series [7] (10^−10 M tTF219, presence of 13.5 nM Factor VIIa) it was 20 s. Further, the figures for the coagulation time in series [7] (20,000 molecules per cell) and in series [7] (300,000 molecules of tTF per cell) were 140 s and 40 s, respectively. Further, in [7] (A20 cells incubated without both specificities needed to bind tTF to the cells, FIG. 4A), the “effect on coagulation time” value is given as “no effect on coagulation time”. Also, the “increase in coagulation-inducing potency of tTF” value in series [7] (presence of 0.1 nM Factor VIIa) is reported as 2-5 fold. In [7] (tTF bound to A20 cells by B21-2/10H10, mouse plasma, FIG. 4A), the “time until fibrin strands were visible after the addition of plasma” value was determined as 36 s. The “tumor vessels thrombosed, on average” value in series [9] came to 62%. The “thrombi or abnormalities in paraffin sections of liver, kidney, lung, intestine, heart, brain, adrenals, pancreas, spleen” value in [10] is on record as “neither thrombi, nor histological or morphological abnormalities were visible”. For the same molecule, the “times less factor X-activating activity relative to native transmembrane TF” value in series [11] was “approximately 10^5 times”. The “time for which tumors discontinued growth after treatment” value in series [12] was “about 7 days”.

B2: tTF219 (G164A): amino acid 164 (Gly) of tTF219 replaced by Ala; SEQ ID NO:9 (protein)
chain: SGTTNTVAAYNLTWKSTNFKTILEWEPKPVNQVYTVQISTKSGDWKSKCFYTTDTECDLTDEIVKDVKQTYLARVFSYPAGNVESTGSAGEPLYENSPEFTPYLETNLGQPTIQSFEQVGTKVNVTVEDERTLVRRNNTFLSLRDVFGKDLIYTLYYWKSSSSAKKTAKTNTNEFLIDVDKGENYCFSVQAVIPSRTVNRKSTDSPVECMGQEKGEFRE
In the case of B2, the toxicity to mice result in series [13] is “practically non-toxic”. In [3], the “necrosis in tumor sections, in words” value is “some necrosis”. In [7], the “coagulation times compared with tTF219 and Factor VIIa at the same concentrations” value is recorded as “only marginally slower coagulation times”; the “coagulation-inducing activity once localized on A20 cells via B21-2/10H10, in words (compared with tTF219)” value is listed as “Weak coagulation”.

B3: tTF219 (W158R): tryptophan at amino acid 158 of tTF219 mutated to an arginine; SEQ ID NO:8 (protein)
chain: B2 chain with W158R, A164G
As to B3, the toxicity to mice entry in series [13] is “practically non-toxic”. Besides, in series [7], the “coagulation times compared with tTF219 and Factor VIIa at the same concentrations” value was “only marginally slower coagulation times”; the “coagulation-inducing activity once localized on A20 cells via B21-2/10H10, in words (compared with tTF219)” value was “Weak coagulation”.

Values taken from patent US7951356B1, “Tissue factor compositions and kits for coagulation and tumor treatment” (Board of Regents, The University of Texas System, priority 1997, dated 2011).
